# Measured values taken from patent US20220323495A1 (NATIONAL RESEARCH COUNCIL OF CANADA, published 2022).
# No end group written: not given here.
# T1: human EGFRvIII amino acid residues 1 to 18, yeast-displayed (human, not fully specified)
# T1 construct: also called aa 1-18
# T1 peptide: LEEKKGNYVVTDHGSCVR
# B1: F271-1D2 anti-EGFRvIII monoclonal antibody (antibody, V domains shown)
# VH: DVQLQESGPDLVKPSQSLSLTCTVTGYSITSGYSWHWIRQFPGNKLEWMGYIHYSGSTNYNPSLKSRISITRDTSKNQFFLQLSSVTTEDTATYYCTRSPYFDVWGTGTTVTVSS
# VL: DVVMTQTPLSLPVSLGDQASISCRSSQSLVHSDGNTYLHWYLQKPGQSPKLLIYKVSNRFSGVPDRFSGSGSGTDFTLKISRVEAEDLGVYFCSQSTHVPWTFGGGTKLEIK
# notes: Mouse hybridoma IgG, tested as supernatant or Protein G purified mAb
# Experiments:
# [1] = target: T2, wild-type human EGFR expressed on cells (U87MG overexpressing wild-type human EGFR) (human, UniProt P00533 25-645); assay: flow cytometry, hybridoma supernatant on U87MG-EGFR WT cells
# T2 construct: Full length wt EGFR on cells; also called U87MG-EGFR WT; U87 WT
# Protocol: Prior to analysis, cells were plated such that they were not more than 80% confluent on the day of analysis. Unless otherwise stated, all media are kept are 4° C. and all incubations are performed on wet ice.
# [2] = target: T3, recombinant human wild-type EGFR protein, native (human, UniProt P00533 25-645); assay: ELISA on coated native recombinant antigen; Exp 1, mAb supernatant
# T3 construct: Recombinant protein used as ELISA coat; also called EGFRwt; wt EGFR
# Protocol: (§1) Pre- and post-immune sera titers of animals were assessed by ELISA on recombinant EGFRvIII protein. Unless otherwise stated, all incubations were performed at room temperature. Briefly, half-area 96-well plates (Costar #3690) were coated with 25 μl per well of immunogen at 5 μg/ml in PBS and incubated overnight at 4° C. Microplates were washed three times in PBS and blocked for 30 min with PBS containing 1% bovine serum albumin (BSA, Sigma Cat#A7030). Blocking buffer was removed and 25 μl of serial dilutions of sera samples were added. After a 2-h incubation, microplates were washed 4 times with PBS-TWEEN™ 20 0.05% and 25 μl of a 1/5,000 dilution of alkaline phosphatase conjugated F(ab′)′₂ goat anti-mouse IgG (H+L, #115-056-062, Jackson Immunoresearch, Cedarlane, Burlington, ON) in blocking buffer was added. After a 1-h incubation, microplates were washed 4 times and 25 μl of p-nitrophenyl phosphate (pNPP) substrate (Sigma-Aldrich Canada Co., Oakville, ON) at 1 mg/ml in carbonate buffer at pH 9.6 was added and further incubated for 30 min. Absorbance was read at 405 nm using a SpectraMax 340 PC plate reader (Molecular Devices, Sunnyvale, Calif.).
# (§2) To evaluate if monoclonal antibodies bind to a conformational epitope, an ELISA analysis on native and denatured recombinant human wild-type EGFR and EGFRvIII proteins were performed. […] Antigens at 1-2 mg/ml were denatured by incubation at 95° C. for 5 min in PBS containing DTT at 40 mM final concentration. They were then incubated on ice for 5 min and diluted at their final coating concentration for ELISA purpose.
# (§3) mAbs were purified using HiTrap ProteinG HP 1 mL columns GE Healthcare cat no. 17-0404-01 and desalted using Zeba-spin desalting columns 5 mL (Pierce) pre-equilibrated in PBS and filter sterilized through […] membrane (Millipore). The final concentration of the antibody solutions was determined using a Nano-drop 2000 (ThermoScientific), using IgG as sample type. ELISA was performed as described above (serum titer determination) using 25 μl of mAb supernatant (Exp 1) or purified mAb at 1 μg/ml (Exp 2).
# [3] = target: T4, recombinant human EGFRvIII protein, native (human, UniProt P00533 298-623); assay: as above
# T4 construct: Recombinant extracellular domain used as immunogen and ELISA coat; also called EGFRvIII Native
# Protocol: as §1, §2, §3
# [4] = target: T5, recombinant human EGFRvIII protein, denatured (human, UniProt P00533 298-623); assay: ELISA on coated denatured recombinant antigen; Exp 1, mAb supernatant
# T5 construct: Same protein as m9 after denaturation (95 °C for 5 min in PBS with 40 mM DTT); also called EGFRvIII Denatured
# Protocol: as §1, §2, §3
# [5] = target: T3, recombinant human wild-type EGFR …; assay: ELISA on coated native recombinant antigen; Exp 2, purified mAb 1 µg/ml
# Protocol: as §1, §2, §3
# [6] = target: T4, recombinant human EGFRvIII protein, …; assay: as above
# Protocol: as §1, §2, §3
# [7] = target: T1, human EGFRvIII amino acid residues 1 to …; assay: yeast display; smallest EGFRvIII fragment the antibody was able to bind
# From the text: Assessment of the binding of anti-EGFRvIII monoclonal antibodies to the fusion proteins expressed on yeast cell surface was done by flow cytometry analysis. Yeast cells were labeled with both the anti-EGFRvIII monoclonal antibody and chicken anti-Myc antibody the latter being used to monitor the level of expression of the fusion protein. Following a wash step, binding of the primary antibodies is probed by a two-color indirect fluorescence labeling using a specific mouse and chicken secondary antibodies for each of the primary antibody respectively.
# [8] = target: T5, recombinant human EGFRvIII protein, …; assay: ELISA on coated denatured recombinant antigen; Exp 2, purified mAb 1 µg/ml
# Protocol: as §1, §2, §3
# [9] = target: T6, recombinant human wild-type EGFR protein, denatured (human, UniProt P00533 25-645); assay: as above
# T6 construct: Same protein as m11 after denaturation (95 °C for 5 min in PBS with 40 mM DTT); also called EGFRwt Denatured
# Protocol: as §1, §2, §3
binder,measurement,setting,value
B1,binding result,[1],no binding
same,ELISA absorbance (405 nm),[2],0.002 A405
same,ELISA absorbance (405 nm),[3],1.49 A405
same,ELISA absorbance (405 nm),[4],2.55 A405
same,ELISA absorbance (405 nm),[5],0.004 A405
same,ELISA absorbance (405 nm),[6],0.935 A405
same,binding result,[7],binds
same,ELISA absorbance (405 nm),[8],1.05 A405
same,ELISA absorbance (405 nm),[9],0 A405
